Data from the domain aggregation screens of Martell et al. (2025).

Test: soluble fraction after stress (log2 fold change); higher = more stays soluble; pooled small domains, quantitative proteomics
Details: stress: 50 degC
Outline: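 The measure of aggregation propensity here is the base-two logarithm of the fold change in the soluble amount of each protein after stress. A higher value means more of that protein stays in solution. Stress was applied at 50°C to pooled libraries of small protein domains, read out by high-throughput quantitative proteomics.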

Point of comparison: “HMTDEEKENLREKMLEAGFPLLKQYGMTHTSVAKITQAAGIAVGTFYSFWKNKEAYMADLIGYHRR”, “soluble fraction (log2)” value -0.818. Against it:
- HMDISEIEKRLLDFLEMPRSRKEIAEHLGIRTISYAIQTYITPLIDKKLVKMTIPESPRSHSQQYVRIN — within 0.2 log units, -0.92
- HMEQISVPIFTNDELVTFARSYSGELGYKIDDMAVLALYNRISNIQRLDQATTLTEVKDIVDEAVAKSE — higher, -0.0661
- HMDKIEVVEVDMSKPYEDMTVTELQNVILDKLASNGPVTNQMKKDVSENIYHDSLVNWAKSF — higher, 0.0697
- HMGVAAPMPGTITDVRVKVGDRVQPRTVVMMLEAMKMENEIFAGRAGVVSQVAVEKGASVNTGDLLISIDP — higher, 0.129
- HMGNEEEEAIREAEEAIERVLEYGEPQELNPQNGFIRRLQHQLAEKSHLSSESVGVEPYRRVRISK — higher, 0.185
- HMIMNKEIPVVADEFVEKEFGTGAVKLTPAHDPNDYESGERHGLEVVEVFDETGKMNDLVPEYEG — higher, 0.551
- HMSTDKIDIVSSAILSSLKDNDGFIGLTDKSPPPEIYTAFRVSKKVFKQAIGALYKQRRITLESSGIRLIS — higher, -0.193
- HMNIMAQDWISSPMGPISFKSNQHGLVKIGWGEVPRENTEQPNLEFTRKWLVDYFEGKASPLPYF — higher, -0.329
- HMSPLTPEEAEVLRILGDHGDMTVDNIATEGKMSAAAVLRVLGVLSAYGLAVPSGPGRWGSRAA — higher, -0.24
- HMPEKKKYGDFVSMTEEEYGKLVSEYGQEAAKRMVEILNNYKGATGKPYKSDYLAILNWVVKRIKEE — higher, 0.0441
- HMLDPIQEGKKMLNSRLSGFGITPNTRLMNKLLAAYNISSREEFYGRIGAGIEDLSTLREVLLKGT — higher, -0.284
- HMNSKMTYSDLIGNIEQGNVSSVELASDGKSATVTLTDNSQKQVNIPSLDSFVTYVQDHIKAGTLSVEE — higher, 0.000127
- HMNKITIEEAKSIALKHSNLDESQVSFIRSEYDFDNGIEKYEIEFYYNNNKYEYEINAKTGDIISYDYDI — higher, -0.292
- HMQNGNYVVQRQDSLWSIAARISGQTHQPIGEVMNHIKALNEHAFVGGNVNRLRTGTNLNLG — higher, -0.156
- HMFIRINQTQNSPRKSVQIVESKRDGHKVRTKILRHVGIAMDDVELQKLKSLAQDIIAKMTVETENASKQ — higher, -0.00422
- HMGKRRGLKVAEEVFADRGYNPDGTLVNRSLPGAFVKDPDEAIARVIKMVKTKKVTAVNGEEIDIAADSI — higher, 0.132
- HMAVGTASNLIGKDIEAYAPIDGSQSSDDTKTISGKVESVHIKDGVVYMNVKDSQSENIIEVEYGALIKVN — higher, -0.498
- HMITIDNYFNKEKELDFSSFPEALRKGHGFVSKATAHGSSWVSYHSSDAIKKTIDIYLSKLNEYLSNNAKA — higher, -0.494
- HMGIAWGMLREQVAASDVSYRSEVLDILDRTPVWIYDAEGKIVDGRKKRLMDLQGGEPYRHMLEHFFPDLR — lower, -2.48
- HMEDISQHAVKKLVQEMVMAEDPRDPLSDQQIAENLSRLGLKVARRTVAKYRAMLGIQPSNRRRK — higher, -0.0553
- HMDSGVPEWLASALRASPVAWKNFLALPPSHQRRYVGWISSARRDETRNRRIAEAISLLVEHKRLG — within 0.2 log units, -1
- HMNKKAAYKDMAGYFAEMKSKDAADILSRLKDEDIIGIFNEMPRDMVAEMLQKMDRDKATTLTRKML — higher, 0.385
- HMSWRWVPVSGAYTTSALEAAGLTRAFDDQAAAEEWLGLFFDDLLREGVGEVSLYEEDRLVYGPMSL — lower, -3.1
- HMEWNPEKQHLLENYITNYSRQLNDTGLFYKNLDWNYIFNLVGVDDQEFLMLKIDEIYDESINVY — higher, -0.521
- HMSNETLFEFFEKNISQLTPTLVDNINRSLAVHSKKNVKLAIMIAAKSNVRNWNYISAILNRWEKE — lower, -2.21
- HMALQLPFSFAKRHKVLVESAHEPVKVYHTPSTDFAVFAEVRRFLDQTFVLEEIAENRFEELLTSSFQRD — lower, -1.27
- HMELIELTVTEEFEMARLDQFLAGHLTQSRTYIQKLIKAGQITINGNLITRVKVPVHYGDFILINIPDPE — lower, -3.54
- HMFDVNSMIAANIVAILKKQNRKQIDLAGALQTNKQTISKMLNGSRMINAIELKRIAEFLGVKMEELTKL — within 0.2 log units, -0.635
- HMTMKNPNGYGSVINLGKGRRRPWAARVTTGLVYDEKKDKLIQRYKYIGYADTRKEAHQILAEYNAGLPI — lower, -1.43
- HMPLLADLPNLLRKVLKQHPGRVVDVDLERGRQGREIYHVRVLQENGQVRGLFVDASTGELVS — higher, -0.224
- HMLEPGIAVLKTLMSQYRLGVADLPELGSKSNVSKLLNAVEGKKLTRQHIEALSKRFAVSPALF — higher, -0.195
- HMLPDDDMLLNILTKLLIDKQFVINSHEIFDFIIKRANRSYEEMFILVNKLDQLSLEKKRQLTIPLIKEI — within 0.2 log units, -0.652
- HMQTKEVDYGTFMSMIDEKNIGTVEIGDSQIVFTDKDNKNLYETGVMNDPDLAQRLHDAGATFSS — higher, 0.201
- HMQTGRREALEAQLRETGGEAMLARLREIDPEAAARLHPADEKRVIRALEVYEETGKTITQHNLETKAVPP — higher, 0.239
